Here are results for one substance from patent publication US20230068487A1.

This experiment concerns the target commercial recombinant neutrophil elastase (NE) (UniProt P08246). Description: cell-based or functional assay.
Chain of UniProt P08246 (P08246 30-247 limits assumed): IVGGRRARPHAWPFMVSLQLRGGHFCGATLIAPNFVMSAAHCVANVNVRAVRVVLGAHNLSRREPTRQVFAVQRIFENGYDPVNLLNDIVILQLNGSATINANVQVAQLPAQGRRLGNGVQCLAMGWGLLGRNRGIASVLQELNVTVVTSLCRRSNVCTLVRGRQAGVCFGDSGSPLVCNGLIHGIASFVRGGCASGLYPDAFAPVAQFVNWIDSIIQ

Take “wild type recombinant human alpha-1-antitrypsin (WT-rhAAT) (from UniProt P01009 25-418)”: the reduction of NE activity (elastase inhibitory activity, chromogenic substrate) at 0.65 µM WT-rhAAT was 75%.
